This data set concerns the molecule itself. Kind of data set: crystal structure.

B1: Streptococcus pneumoniae pyruvate kinase (enzyme)
chain: MNKRVKIVATLGPAVEIRGGKKFGEDGYWGEKLDVEASAKNIAKLIEAGANTFRFNFSHGDHQEQGERMATVKLAEKIAGKKVGFLLDTKGPEIRTELFEGEAKEYSYKTGEKIRVATKQGIKSTREVIALNVAGALDIYDDVEVGRQVLVDDGKLGLRVVAKDDATREFEVEVENDGIIAKQKGVNIPNTKIPFPALAERDNDDIRFGLEQGINFIAISFVRTAKDVNEVRAICEETGNGHVQLFAKIENQQGIDNLDEIIEAADGIMIARGDMGIEVPFEMVPVYQKMIIKKVNAAGKVVITATNMLETMTEKPRATRSEVSDVFNAVIDGTDATMLSGESANGKYPLESVTTMATIDKNAQALLNEYGRLDSDSFERNSKTEVMASAVKDATSSMDIKLVVTLTKTGHTARLISKYRPNADILALTFDELTERGLMLNWGVIPMLTDAPSSTDDMFEIAERKAVEAGLVESGDDIVIVAGVPVGEAVRTNTMRIRTVR
In the case of B1, the stoichiometry N (commonly a count of units in the complex or per binding partner) is 4.

(Values after publication doi:10.1101/2024.06.25.600556 (bioRxiv, 2024).)
